Assay results from patent US20230365705A1 (DYNAMICURE BIOTECHNOLOGY, published 2023).

T1: Human CD93 on cells (human CD93 expressing CHO cells; HUVEC, U937 and KG1a cells) (human, UniProt Q9NPY3 22-652)
T1 construct: whole, on cells; also called hCD93 expressing CHO cells; hCD93 CHO cells
T1 sequence (looked up): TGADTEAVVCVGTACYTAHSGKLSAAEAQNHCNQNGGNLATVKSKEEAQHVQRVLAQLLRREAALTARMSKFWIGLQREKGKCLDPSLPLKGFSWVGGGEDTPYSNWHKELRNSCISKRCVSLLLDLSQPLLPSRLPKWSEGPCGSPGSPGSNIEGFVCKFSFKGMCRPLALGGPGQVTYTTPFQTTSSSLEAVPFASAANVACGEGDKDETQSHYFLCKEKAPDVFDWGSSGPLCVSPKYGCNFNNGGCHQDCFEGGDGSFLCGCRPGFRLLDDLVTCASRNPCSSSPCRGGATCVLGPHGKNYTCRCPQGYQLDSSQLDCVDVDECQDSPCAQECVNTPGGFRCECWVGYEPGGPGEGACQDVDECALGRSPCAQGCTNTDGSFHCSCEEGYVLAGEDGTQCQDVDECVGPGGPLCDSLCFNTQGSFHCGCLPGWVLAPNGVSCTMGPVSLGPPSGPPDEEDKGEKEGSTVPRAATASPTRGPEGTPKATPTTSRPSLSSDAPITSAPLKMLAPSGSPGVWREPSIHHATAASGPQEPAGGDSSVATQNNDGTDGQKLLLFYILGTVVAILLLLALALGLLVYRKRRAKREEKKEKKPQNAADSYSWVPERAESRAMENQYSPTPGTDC

T2: Human CD93 recombinant protein (Sino Biological Inc, Catalog #12589-H08H) (human, UniProt Q9NPY3 22-580)
T2 construct: Biotinylated (EZ-LINK NHS-PEG4 biotin) in the BLI assays; also called hCD93; His-tagged human CD93
T2 sequence (looked up): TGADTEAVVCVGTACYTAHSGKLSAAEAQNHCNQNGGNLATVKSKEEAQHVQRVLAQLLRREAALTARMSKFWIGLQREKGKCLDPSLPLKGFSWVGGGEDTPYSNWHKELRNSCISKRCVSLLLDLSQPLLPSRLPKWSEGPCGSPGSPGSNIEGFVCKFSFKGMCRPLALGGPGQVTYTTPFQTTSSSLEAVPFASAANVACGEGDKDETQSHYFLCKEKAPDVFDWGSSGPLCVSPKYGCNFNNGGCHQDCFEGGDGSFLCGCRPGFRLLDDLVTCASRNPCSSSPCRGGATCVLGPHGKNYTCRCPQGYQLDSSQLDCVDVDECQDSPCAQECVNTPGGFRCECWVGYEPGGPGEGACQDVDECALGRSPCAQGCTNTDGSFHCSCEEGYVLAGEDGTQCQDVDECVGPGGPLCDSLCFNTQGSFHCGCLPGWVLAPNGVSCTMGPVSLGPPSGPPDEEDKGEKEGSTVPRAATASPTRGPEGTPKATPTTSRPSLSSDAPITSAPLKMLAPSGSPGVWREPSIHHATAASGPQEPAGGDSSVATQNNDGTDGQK


How the values were obtained:
[1] = biological target: T1, Human CD93 on cells (human CD93 …); assay: flow cytometry on human CD93 expressing CHO cells (10 µg/ml by the text)
[2] = biological target: T2, Human CD93 recombinant protein (Sino …); assay: ELISA, antigen coated at 1 µg/mL
Description: His-tagged human CD93, cyno CD93, human VEGFA, and mouse VEGFA were coated onto a 96 well plate at 1 μg/mL in 1× PBS overnight at 4′C. The plate was washed with ELISA wash buffer (Boston BioProduct, Inc.) and the wells were blocked with 3% BSA/PBS ELISA blocking buffer for 1 hour at 37′C. […] The plate was washed with ELISA wash Buffer. HRP conjugated Anti-human Fc was added and incubated for one hour at 37° C. The plate was washed with ELISA wash buffer and read in a microplate reader at 405 nm.

[3] = biological target: T3, rh VEGFA (recombinant human VEGFA) (human, UniProt P15692-4 27-191, limits assumed); assay: BLI (Octet QKe), biotinylated rh VEGFA on streptavidin sensors
Description: (§1) The rh VEGFA was made in-house and biotinylated using EZ-LINK NHS-PEG4 biotin (Thermo Fisher Scientific). Streptavidin biosensors (Fortebio) were used to load biotinylated rh VEGFA protein (300 seconds in 5 μg/ml). […] Then the sensors were dissociated in 1× kinetics buffer for 600 seconds.

[4] = biological target: T3, rh VEGFA (recombinant human VEGFA); assay: BLI (Octet), biotinylated rh VEGFA on streptavidin biosensors, sample in serial dilution
Description: as §1

binding result [1]	binding result [2]	Kd [3]	Kd [4]	koff [4]	kon [4]	Binder
binds	binds					chimeric 7F3/VEGFRFc (chimeric 7F3-Aflibercept) (bispecific antibody, human IgG1, kappa, also called chimeric 7F3/VEGFR construct) heavy: not shown light: ENVLTQSPAIMSASPGEKVTMTCRASSSVSSSYLHWYQQKSGASPKLWIYSTSNLAFGVPARFSGSGSGTSYSLTISSVEAEDAATYYCQQYSGYPLTFGSGTKLEIKRTVAAPSVFIFPPSDEQLKSGTASVVCLLNNFYPREAKVQWKVDNALQSGNSQESVTEQDSKDSTYSLSSTLTLSKADYEKHKVYACEVTHQGLSSPVTKSFNRGEC
		2 nM	2.01 nM	0.000121 s⁻¹	60300 M⁻¹ s⁻¹	humanized 7F3/VEGFRFc (h7F3/VEGFRFc) (bispecific antibody, human IgG1, kappa, Full-length human IgG1 with VEGF-trap on the C-terminus of both heavy chains; also called humanized 7F3-Aflibercept; h7F3-VEGF trap) heavy: not shown light: EIVLTQSPSSLSASVGDRVTITCRASSSVSSSYLHWYQQKPGKAPKLLIYSTSNLAFGVPSRFSGSGSGTSYTFTISSLQPEDIATYYCQQYSGYPLTFGSGTKLEIKRTVAAPSVFIFPPSDEQLKSGTASVVCLLNNFYPREAKVQWKVDNALQSGNSQESVTEQDSKDSTYSLSSTLTLSKADYEKHKVYACEVTHQGLSSPVTKSFNRGEC
